Laboratory results published in article PMC10502012.

Legend:
[1] = biological target: chicken PHT1 (purified, wild type); test: thermal stability (thermal shift) of PHT1 with TASL peptides; details: chain shown with the change, peptide concentration 50 µM, read off a plot
[2] = biological target: biotinylated chicken PHT1 (BLI sample) (chicken); test: BLI; biotinylated PHT1 on streptavidin biosensors; Sb27 6-800 nM; 22 °C; 50 mM HEPES pH 7.5, 100 mM NaCl, 0.02% DDM/0.004% CHS, 0.5% BSA; 1:1 binding model
biotinylated chicken PHT1 (BLI sample) (chicken), sequence (A6QQL0 other isoform, or with tags, fused parts or gaps): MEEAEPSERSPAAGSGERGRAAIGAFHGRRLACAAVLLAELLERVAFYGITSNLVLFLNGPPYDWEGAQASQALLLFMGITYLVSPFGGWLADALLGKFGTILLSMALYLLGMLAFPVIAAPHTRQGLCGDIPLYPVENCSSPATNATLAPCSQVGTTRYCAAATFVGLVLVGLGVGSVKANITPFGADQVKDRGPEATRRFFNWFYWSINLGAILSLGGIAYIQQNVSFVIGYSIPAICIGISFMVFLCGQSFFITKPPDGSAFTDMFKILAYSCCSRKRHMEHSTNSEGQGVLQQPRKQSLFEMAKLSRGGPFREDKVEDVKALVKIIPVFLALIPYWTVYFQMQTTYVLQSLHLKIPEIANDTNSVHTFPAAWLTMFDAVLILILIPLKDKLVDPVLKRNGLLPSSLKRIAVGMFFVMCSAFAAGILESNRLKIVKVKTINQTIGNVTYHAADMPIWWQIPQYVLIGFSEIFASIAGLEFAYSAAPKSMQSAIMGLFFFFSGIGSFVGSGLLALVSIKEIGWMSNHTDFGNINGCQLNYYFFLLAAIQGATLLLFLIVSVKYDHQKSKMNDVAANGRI

chicken PHT1 (purified, wild type), sequence (chain, as listed by the source): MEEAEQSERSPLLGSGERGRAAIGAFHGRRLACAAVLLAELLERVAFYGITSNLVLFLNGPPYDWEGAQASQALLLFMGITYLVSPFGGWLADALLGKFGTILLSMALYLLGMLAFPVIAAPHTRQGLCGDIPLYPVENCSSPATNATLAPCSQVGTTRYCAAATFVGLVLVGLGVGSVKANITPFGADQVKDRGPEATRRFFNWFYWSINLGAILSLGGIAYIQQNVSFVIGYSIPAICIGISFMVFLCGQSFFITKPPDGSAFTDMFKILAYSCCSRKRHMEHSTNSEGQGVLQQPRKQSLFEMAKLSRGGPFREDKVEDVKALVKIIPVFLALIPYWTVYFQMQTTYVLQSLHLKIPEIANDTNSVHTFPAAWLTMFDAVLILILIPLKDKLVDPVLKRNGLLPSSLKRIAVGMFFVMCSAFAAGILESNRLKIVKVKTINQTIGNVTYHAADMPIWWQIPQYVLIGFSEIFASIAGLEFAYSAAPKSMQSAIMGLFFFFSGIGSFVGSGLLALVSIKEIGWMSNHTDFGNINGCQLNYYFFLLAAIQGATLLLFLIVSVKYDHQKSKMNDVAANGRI

Row | other: ΔTm ([1]; parent: est. 13.6) [Kelvin] | Binder | other results
1 | 6.9 | MLSEGYLYAIAYL [TASL_(1-13) peptide R9A] | 
2 | 13 | MLSEGYAYRIAYL [TASL_(1-13) peptide L7A] | 
3 | 9.9 | MLSEGYLARIAYL [TASL_(1-13) peptide Y8A] | 
4 | 11 | MLSEGALYRIAYL [TASL_(1-13) peptide Y6A] | 

More lines, now with the values behind:

Row | Binder | other: ΔTm ([1]; parent: est. 13.6) [Kelvin] | other results
5 | MASEGYLYRIAYL [TASL_(1-13) peptide L2A] | 5.6 | 
6 | sybody 27 (VHH) VHH: QVQLVESGGGSVQAGGSLRLSCAASGDIETIWYLGWFRQAPGKEREGVAALSTVTGSTYYADSVKGRFTVSLDNAKNTVYLQMNSLKPEDTALYYCAAAYTGWMAPLWQWVYSYWGQGTQVTVSA |  | Kd [2]: 400 nM
7 | MLAEGYLYRIAYL [TASL_(1-13) peptide S3A] | 13 | 
8 | MLSEGYLYRIAYLA [TASL peptide with a length of 14 residues C14A] |  | other: ΔTm [1]: 15 Kelvin
9 | MLSAGYLYRIAYL [TASL_(1-13) peptide E4A] | 0.45 | 
10 | ALSEGYLYRIAYL [TASL_(1-13) peptide M1A] | 5.1 | 
